Measured values reported in US20200040084A1.
Blank lines part the entries; values can stand above or below the substance they belong to.

Columns and labels:
[1] = target: FcγRIIIa on Jurkat effector cells (UniProt P08637); assay: cell-based or functional assay
[2] = target: FcγRIIa (secondary ADCP assay, M2c macrophage effector cells) (UniProt P12318); assay: cell-based or functional assay
[3] = target: FcγRIIIa (secondary ADCC assays, NK effector cells) (UniProt P08637); assay: cell-based or functional assay
FcγRIIa = FcγRIIa (UniProt P12318); assay: SPR, FcγRIIa binding
[4] = target: human FcγRIIa-H variant (Histidine at amino acid 131) on Jurkat effector cells (human) (UniProt P12318); assay: cell-based or functional assay
human FcγRIIa-H variant (Histidine at amino acid 131) on Jurkat effector cells (human), sequence (P12318 34-317, change not shown): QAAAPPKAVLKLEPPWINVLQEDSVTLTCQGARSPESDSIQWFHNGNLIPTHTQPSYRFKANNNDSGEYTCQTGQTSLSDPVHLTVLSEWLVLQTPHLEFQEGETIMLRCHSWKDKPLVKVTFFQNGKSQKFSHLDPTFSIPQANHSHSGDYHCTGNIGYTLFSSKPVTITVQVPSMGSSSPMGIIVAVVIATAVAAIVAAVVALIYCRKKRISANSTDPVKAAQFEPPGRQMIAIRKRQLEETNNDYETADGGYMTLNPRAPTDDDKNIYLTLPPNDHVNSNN

FcγRIIa, sequence (P12318 34-217 limits assumed): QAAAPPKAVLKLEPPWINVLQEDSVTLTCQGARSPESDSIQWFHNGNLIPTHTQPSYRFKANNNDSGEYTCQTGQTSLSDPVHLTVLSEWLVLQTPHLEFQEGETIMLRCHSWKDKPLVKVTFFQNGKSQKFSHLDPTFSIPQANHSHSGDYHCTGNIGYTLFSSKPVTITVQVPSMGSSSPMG
fucosylated anti-PD-L1 IgG1 antibody (avelumab), sequence (HC): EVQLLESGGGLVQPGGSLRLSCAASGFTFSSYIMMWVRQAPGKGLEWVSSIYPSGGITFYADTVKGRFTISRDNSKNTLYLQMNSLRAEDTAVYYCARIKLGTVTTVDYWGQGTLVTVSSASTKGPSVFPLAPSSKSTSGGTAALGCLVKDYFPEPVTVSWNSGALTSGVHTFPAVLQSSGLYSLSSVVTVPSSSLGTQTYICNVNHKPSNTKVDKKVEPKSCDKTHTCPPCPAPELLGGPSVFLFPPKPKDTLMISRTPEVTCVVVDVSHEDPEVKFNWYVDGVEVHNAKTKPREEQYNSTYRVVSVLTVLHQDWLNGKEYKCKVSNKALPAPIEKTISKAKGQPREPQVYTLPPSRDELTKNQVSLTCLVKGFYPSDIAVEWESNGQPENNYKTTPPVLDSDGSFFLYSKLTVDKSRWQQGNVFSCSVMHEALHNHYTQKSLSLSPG
fucosylated anti-PD-L1 IgG1 antibody (avelumab), sequence (LC): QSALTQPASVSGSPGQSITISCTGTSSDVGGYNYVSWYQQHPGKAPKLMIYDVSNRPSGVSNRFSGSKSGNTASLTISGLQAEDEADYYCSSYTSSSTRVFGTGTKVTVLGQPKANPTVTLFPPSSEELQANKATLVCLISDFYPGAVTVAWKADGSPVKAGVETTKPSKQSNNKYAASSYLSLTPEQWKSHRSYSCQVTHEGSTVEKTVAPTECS
afucosylated anti-PD-L1 IgG1 antibody (avelumab), sequence (HC): as the sequence (HC) above
afucosylated anti-PD-L1 IgG1 antibody (avelumab), sequence (LC): as the sequence (LC) above

EC50 mean, FcγRIIIa signaling in ADCC reporter assay (HEK-PD-L1 targets) [1]: 0.049 nM
Substance: fucosylated anti-PD-L1 IgG1 antibody (avelumab)

EC50 mean, ADCP in KILR Raji cells (M2c macrophages) [2]: 0.37 nM
Substance: afucosylated anti-CD20 IgG1 antibody (obinutuzumab)

EC50 mean, ADCC in KILR-A549 cells (NK cells) [3]: 0.0054 nM
Substance: afucosylated anti-PD-L1 IgG1 antibody (avelumab)

fold enhancement of binding by afucosylation (FcγRIIa): 10 fold
Substance: afucosylated version of Ipilimumab (antibody)

EC50 mean, ADCC in KILR Raji cells (NK cells) [3]: 0.033 nM
EC50 mean, FcγRIIIa signaling in ADCC reporter assay (Raji targets) [1]: 7.1 nM
EC50 mean, ADCP in KILR Raji cells (M2c macrophages) [2]: 0.82 nM
EC50 mean, FcγRIIa signaling in ADCP reporter assay (Raji targets) [4]: 7.1 nM
Substance: fucosylated anti-CD20 IgG1 antibody (obinutuzumab)
